Test results: patent publication US20150132305A1
Each block holds one binder with its values, some of them ahead of it.

Key:
[1] = target: T1, human Cadherin-11 on cells (Cad-11-expressing 431-D-11 cells; human fibroblast-like synoviocytes) (human) (UniProt P55287); assay: cell-based or functional assay
T1 sequence: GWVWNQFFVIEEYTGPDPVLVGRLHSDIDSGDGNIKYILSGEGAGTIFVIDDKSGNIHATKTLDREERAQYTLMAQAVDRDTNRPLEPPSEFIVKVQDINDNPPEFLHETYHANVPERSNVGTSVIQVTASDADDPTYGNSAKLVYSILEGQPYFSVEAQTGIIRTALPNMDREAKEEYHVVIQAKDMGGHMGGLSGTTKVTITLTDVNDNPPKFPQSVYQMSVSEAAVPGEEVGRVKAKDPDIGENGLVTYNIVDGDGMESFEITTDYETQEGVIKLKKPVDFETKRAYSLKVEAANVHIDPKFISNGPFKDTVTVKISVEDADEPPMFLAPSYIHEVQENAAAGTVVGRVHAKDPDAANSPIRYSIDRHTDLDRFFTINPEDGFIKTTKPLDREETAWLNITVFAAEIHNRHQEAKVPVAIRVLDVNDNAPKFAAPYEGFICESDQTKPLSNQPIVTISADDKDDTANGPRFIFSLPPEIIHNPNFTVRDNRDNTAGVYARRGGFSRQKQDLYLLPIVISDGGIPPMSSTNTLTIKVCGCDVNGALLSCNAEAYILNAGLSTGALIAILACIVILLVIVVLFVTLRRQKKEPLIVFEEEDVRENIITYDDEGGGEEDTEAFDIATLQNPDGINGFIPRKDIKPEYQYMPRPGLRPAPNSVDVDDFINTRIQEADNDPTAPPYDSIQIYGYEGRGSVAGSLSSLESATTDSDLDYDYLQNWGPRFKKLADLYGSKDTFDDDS

[2] = target: Cad-11 EC1 domain peptide, first 33 amino acids (G1-G33), specificity ELISA of Example 5 (human); assay: ELISA on biotin EC1 peptides
[3] = target: T2, Cad-8 EC1 domain peptide (region overlapping G1-G33 of the Cad-11 EC1 domain) (UniProt P55286); assay: ELISA on biotin EC1 peptides
T2 sequence (peptide, conjugated to biotin, looked up): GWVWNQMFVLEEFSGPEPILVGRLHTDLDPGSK

[4] = target: T3, recombinant Cad-11 EC1 human IgG1 fusion protein (R&D Systems Cat. No. 1790-CA-050) (human) (UniProt P55287); assay: competition ELISA on coated recombinant human Cad-11 EC1 fusion protein against biotinylated SYN0012 (0.1 µg/ml)
T3 sequence: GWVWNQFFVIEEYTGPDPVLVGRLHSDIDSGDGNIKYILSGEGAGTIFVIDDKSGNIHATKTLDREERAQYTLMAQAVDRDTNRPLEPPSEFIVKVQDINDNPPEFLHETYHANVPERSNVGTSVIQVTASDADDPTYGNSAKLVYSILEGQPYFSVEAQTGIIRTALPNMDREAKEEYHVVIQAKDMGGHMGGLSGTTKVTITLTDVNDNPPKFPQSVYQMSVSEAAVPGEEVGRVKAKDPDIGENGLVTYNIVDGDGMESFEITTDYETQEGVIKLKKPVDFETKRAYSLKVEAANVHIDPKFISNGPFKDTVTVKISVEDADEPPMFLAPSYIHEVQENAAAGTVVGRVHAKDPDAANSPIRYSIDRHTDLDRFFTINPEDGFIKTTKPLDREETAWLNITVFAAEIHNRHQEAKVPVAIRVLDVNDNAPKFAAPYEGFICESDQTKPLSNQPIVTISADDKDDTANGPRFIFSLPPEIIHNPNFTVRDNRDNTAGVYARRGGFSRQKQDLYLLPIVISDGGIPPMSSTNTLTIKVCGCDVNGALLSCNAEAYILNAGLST

[5] = target: T4, Cad-11 37-mer peptide linked to BSA (encompasses the Cad-11 immunogen) (human); assay: ELISA on peptide antigens, 50 ng/ml coat
T4 sequence (peptide, linked to BSA): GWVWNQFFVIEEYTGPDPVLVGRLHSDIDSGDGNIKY

[6] = target: T4, Cad-11 37-mer peptide linked to BSA (encompasses the Cad-11 immunogen) (human); assay: ELISA on BSA-coupled 37-mer peptides, 500 ng/ml coat
[7] = target: T4, Cad-11 37-mer peptide linked to BSA (encompasses the Cad-11 immunogen) (human); assay: ELISA on peptide antigen, 50 ng/ml coat; Cad-11 antigen, 50 ng/ml coat
[8] = target: T4, Cad-11 37-mer peptide linked to BSA (encompasses the Cad-11 immunogen) (human); assay: ELISA, BSA-coupled 37-mer cadherin peptide coated at 500 ng/ml, A450

inhibition of FLS invasion into MATRIGEL-coated membrane [1]: 80%
fold higher binding to Cad-11 than to any of the other cadherins tested [2]: > 100 fold
fold lower binding than to Cad-11 [3]: 1500 fold
IC50 (read off the curve) [4]: 0.2 µg/mL
B1: H1M1 anti-Cad-11 EC1 domain antibody (hybridoma H1M1, ATCC PTA-9699) (antibody, V domains shown)
VH: EVQLQQSGPELVKPGASVKISCKASGYSFTGYFMNWVKQSHGKSLEWIGRINPYTGDTFYNQKFKGKATLTVDKSSSTAHMELLSLSSEDSAVYYCGRLGSRYWYFDVWGAGTTVTVSS
VL: DVLMTQTPLSLPVSLGDQASISCRSSQSIIHSNGNTYLEWYLQKPGQSPKLLIYKVSNRFSGVPDRFWTFGGGTKLEIKTGSGSGTDFTLKISRVEAEDLGVYYCFQGSHVPWTFGGGTKLEIK

binding differential, Cad-11 against Cad-8 [5]: > 200 fold
fold greater binding to the Cad-11 antigen than to the related antigens from the other cadherins [6]: > 100 fold
EC50 [7]: 6.8 ng/mL
EC50 (read off the curve) [8]: 40 ng/mL
B2: SDP051 humanized anti-Cad-11 EC1 antibody (Vκ1/VH5) (antibody, IgG4, V domains shown)
VH: EVQLVQSGAEVKKPGASVKVSCKASGYSFTGYFMNWVRQAPGQGLEWIGRINPYTGDTFYNQKFKGRVTITVDKSTSTAYMELSSLRSEDTAVYYCGRLGSRYWYFDVWGQGTTVTVSS
VL: DVLMTQTPLSSPVTLGQPASISCRSSQSIIHSNGNTYLEWYLQKPGQSPQLLIYKVSNRFSGVPDRFTGSGSGTDFTLKISRVEAEDVGVYYCFQGSHVPWTFGQGTKLEIK
